# Assay results from IntAct's records for PubMed 17314515.
# B1: Protein Vpr (Human immunodeficiency virus type 1 group M subtype B (isolate BRU/LAI)), P05928 (parent)
# chain: MEQAPEDQGPQREPHNEWTLELLEELKNEAVRHFPRIWLHGLGQHIYETYGDTWAGVEAIIRILQQLLFIHFRIGCRHSRIGVTQQRRARNGASRS
# B2: Protein Vpx (Simian immunodeficiency virus (isolate PBj14/BCL-3)), P19508 (parent)
# chain: MSDPRERIPPGNSGEETIGEAFDWLDRTVEEINRAAVNHLPRELIFQVWRRSWEYWHDEMGMSVSYTKYRYLCLIQKAMFMHCKKGCRCLGGEHGAGGWRPGPPPPPPPGLA
# Variants of: B1
# Settings: with DCAF1, Q9Y4B6-3
row,Variant,effect of a mutation on the interaction
1,Q65A,disrupting interaction
2,MEQAPEDQGPQREPHNEWTLELLEELKNEAVRHFPRIWLHGLGQHIYETYGDTWAGVEAIIRILRQLLFIHFRIGCRHSRIGVTQQRRARNGASRS [Q65R],disrupting interaction

# Variants of: B2
# Settings: with DCAF1, Q9Y4B6-3
# Target sequence in this assay (Q9Y4B6 other isoform, or with tags, fused parts or gaps): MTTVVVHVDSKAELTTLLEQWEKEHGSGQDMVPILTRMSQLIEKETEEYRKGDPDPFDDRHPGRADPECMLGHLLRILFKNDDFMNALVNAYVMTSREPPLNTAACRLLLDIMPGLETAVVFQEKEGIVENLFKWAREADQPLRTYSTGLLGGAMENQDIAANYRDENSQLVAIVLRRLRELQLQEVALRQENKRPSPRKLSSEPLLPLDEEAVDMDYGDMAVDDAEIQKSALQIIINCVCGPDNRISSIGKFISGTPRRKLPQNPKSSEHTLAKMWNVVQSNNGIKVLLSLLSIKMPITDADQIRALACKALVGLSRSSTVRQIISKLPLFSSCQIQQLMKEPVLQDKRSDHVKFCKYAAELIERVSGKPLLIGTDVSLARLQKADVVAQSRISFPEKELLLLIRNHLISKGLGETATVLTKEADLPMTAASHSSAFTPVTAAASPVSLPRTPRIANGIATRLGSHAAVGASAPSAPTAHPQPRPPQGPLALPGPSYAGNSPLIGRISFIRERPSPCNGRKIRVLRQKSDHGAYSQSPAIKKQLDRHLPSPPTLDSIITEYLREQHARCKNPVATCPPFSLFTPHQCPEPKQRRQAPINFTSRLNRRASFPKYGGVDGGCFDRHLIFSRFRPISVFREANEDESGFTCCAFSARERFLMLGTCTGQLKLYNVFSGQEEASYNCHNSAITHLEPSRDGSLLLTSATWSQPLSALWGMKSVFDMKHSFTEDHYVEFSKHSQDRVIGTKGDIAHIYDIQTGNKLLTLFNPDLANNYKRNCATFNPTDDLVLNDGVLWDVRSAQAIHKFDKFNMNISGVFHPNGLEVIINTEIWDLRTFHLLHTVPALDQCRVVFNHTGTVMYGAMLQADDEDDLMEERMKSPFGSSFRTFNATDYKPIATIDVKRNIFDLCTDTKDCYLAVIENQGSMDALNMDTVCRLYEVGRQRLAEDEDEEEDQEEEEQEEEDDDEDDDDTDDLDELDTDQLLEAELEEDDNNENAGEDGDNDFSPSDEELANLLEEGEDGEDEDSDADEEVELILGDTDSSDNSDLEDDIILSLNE
row,Variant,effect of a mutation on the interaction
1,MSDPRERIPPGNSGEETIGEAFDWLDRTVEEINRAAVNHLPRELIFQVWRRSWEYWHDEMGMSVSYTKYRYLCLIRKAMFMHCKKGCRCLGGEHGAGGWRPGPPPPPPPGLA [Q76R],disrupting interaction
